Assay results from publication PMC9308819 (Nature Communications, 2022).
Positions count from the first letter of the chain named. Values belong to the binder of their own block, whether it stands above or below them.

Key:
[1] = biological target: T1, Rab3A (Homo sapiens (Human), UniProt P20336); experiment: ITC
T1 chain: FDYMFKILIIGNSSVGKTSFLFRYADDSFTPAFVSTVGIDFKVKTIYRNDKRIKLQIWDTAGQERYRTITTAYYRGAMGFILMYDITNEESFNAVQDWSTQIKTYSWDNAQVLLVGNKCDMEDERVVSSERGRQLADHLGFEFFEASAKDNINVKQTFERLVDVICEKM

[2] = biological target: T2, Rab3B (Homo sapiens (Human), UniProt P20337); experiment: ITC
T2 chain: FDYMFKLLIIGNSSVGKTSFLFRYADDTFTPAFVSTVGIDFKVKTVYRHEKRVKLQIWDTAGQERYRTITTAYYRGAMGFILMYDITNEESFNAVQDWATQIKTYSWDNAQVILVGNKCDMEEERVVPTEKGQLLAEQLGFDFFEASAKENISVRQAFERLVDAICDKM

[3] = biological target: T3, Rab27A (Homo sapiens (Human), UniProt P51159); experiment: ITC
T3 chain: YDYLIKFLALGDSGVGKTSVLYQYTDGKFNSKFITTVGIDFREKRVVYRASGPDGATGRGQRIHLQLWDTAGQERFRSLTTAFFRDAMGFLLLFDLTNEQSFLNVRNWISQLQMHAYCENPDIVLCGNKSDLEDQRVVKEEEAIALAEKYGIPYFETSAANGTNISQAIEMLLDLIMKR

[4] = biological target: T4, Rab3D (Homo sapiens (Human), UniProt O95716); experiment: ITC
T4 chain: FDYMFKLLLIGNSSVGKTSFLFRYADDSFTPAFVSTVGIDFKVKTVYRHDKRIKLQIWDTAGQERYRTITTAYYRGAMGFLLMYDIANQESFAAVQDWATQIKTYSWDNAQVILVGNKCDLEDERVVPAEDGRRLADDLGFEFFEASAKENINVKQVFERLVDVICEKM

[5] = biological target: T5, Rep15 Q85A (human, UniProt Q6BDI9 1-236, N101D | Q85A); experiment: ITC
T5 sequence: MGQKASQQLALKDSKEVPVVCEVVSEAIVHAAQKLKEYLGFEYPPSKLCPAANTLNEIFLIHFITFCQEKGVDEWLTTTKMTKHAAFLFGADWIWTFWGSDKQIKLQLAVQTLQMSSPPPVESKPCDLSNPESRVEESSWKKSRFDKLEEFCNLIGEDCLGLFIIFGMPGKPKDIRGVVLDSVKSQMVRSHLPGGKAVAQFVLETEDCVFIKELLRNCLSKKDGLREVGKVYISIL

[6] = biological target: T6, Rep15 W140A (human, UniProt Q6BDI9 1-236, N101D | W140A); experiment: ITC
T6 sequence: T5 sequence with A85Q, W140A

[7] = biological target: T7, Rep15 D158A (human, UniProt Q6BDI9 1-236, N101D | D158A); experiment: ITC
T7 sequence: T5 sequence with A85Q, D158A

[8] = biological target: T8, Rep15 L88A (human, UniProt Q6BDI9 1-236, N101D | L88A); experiment: ITC
T8 sequence: T5 sequence with A85Q, L88A

[9] = biological target: T9, Rep15, full length (natural N101D variant) (human, UniProt Q6BDI9 1-236, N101D); experiment: stopped-flow fluorescence intensity; association; 0.5 µM mant-GppNHp Rab3A mixed with increasing Rep15 (2–14 µM); 25 °C; 20 mM Hepes 8.0, 50 mM NaCl, 1 mM MgCl2, 2 mM DTE; koff from the intercept, KD as koff/kon; conditions: both partners purified
T9 construct: also called full-length Rep15; Rab15 effector protein
T9 sequence (looked up): T5 sequence with A85Q

[10] = biological target: T10, Rep15 V135A (human, UniProt Q6BDI9 1-236, N101D | V135A); experiment: ITC; 500/600 µM GppNHp/GTP Rab titrated into 50/60 µM Rep15; 20 mM Hepes 8.0, 50 mM NaCl, 1 mM MgCl2, 1 mM TCEP; one-site-binding model; conditions: both partners purified
T10 construct: source: E. coli BL21 Codon-Plus(DE3)-RIL, purified
T10 sequence: T5 sequence with A85Q, V135A

[11] = biological target: T11, Rep15 D158A (human, UniProt Q6BDI9 1-236, N101D | D158A); experiment: as above; conditions: both partners purified
T11 construct: Limits probably as full-length wild type; source: E. coli BL21 Codon-Plus(DE3)-RIL, purified
T11 sequence: T5 sequence with A85Q, D158A

[12] = biological target: T12, Rep15 Q85A (human, UniProt Q6BDI9 1-236, N101D | Q85A); experiment: as above; conditions: both partners purified
T12 construct: Limits probably as full-length wild type; source: E. coli BL21 Codon-Plus(DE3)-RIL, purified
T12 sequence: T5 sequence

[13] = biological target: T13, Rep15 L88A (human, UniProt Q6BDI9 1-236, N101D | L88A); experiment: as above; conditions: both partners purified
T13 construct: Limits probably as full-length wild type; source: E. coli BL21 Codon-Plus(DE3)-RIL, purified
T13 sequence: T5 sequence with A85Q, L88A

[14] = biological target: T14, Rep15 W140A (human, UniProt Q6BDI9 1-236, N101D | W140A); experiment: as above; conditions: both partners purified
T14 construct: source: E. coli BL21 Codon-Plus(DE3)-RIL, purified
T14 sequence: T5 sequence with A85Q, W140A

[15] = biological target: T15, Rep15 H84A (human, UniProt Q6BDI9 1-236, N101D | H84A); experiment: as above; conditions: both partners purified
T15 construct: Limits probably as full-length wild type; source: E. coli BL21 Codon-Plus(DE3)-RIL, purified
T15 sequence: T5 sequence with H84A, A85Q

- Kd [1]: 480 nM
- Kd [2]: 2160 nM
- Kd [3]: 86200 nM
- Kd [4]: 790 nM
B1: Rep15 (protein)
chain: VPVVCEVVSEAIVHAAQKLKEYLGFEYPPSKLCPAANTLNEIFLIHFITFCQEKGVDEWLTTTKMTKHQAFLFGADWIWTFWGSNKQIKLQLAVQTLQMSSPPPVESKPCDLSNPESRVEESSWKKSRFDKLEEFCNLIGEDCLGLFIIFGMPGKPKDIRGVVLDSVKSQMVRSHLPGGKAVAQFVLETEDCVFIKELLRNCLSKKDGLREVGKVYISIL

- Kd [5]: 18500 nM
- Kd [6]: 400 nM
- Kd [7]: 5590 nM
- Kd [8]: 9700 nM
- Kd [9]: 440 to 530 nM
- koff [9]: 4.29 s⁻¹
- kon [9]: 9.72e+06 M⁻¹ s⁻¹
- binding result [10]: binds
- fold reduction in affinity against wild-type Rep15 [11]: 12 fold
- fold reduction in affinity against wild-type Rep15 [12]: > 30 fold
- fold reduction in affinity against wild-type Rep15 [13]: 20 fold
- binding result [14]: binds
- binding result [15]: binds
B2: Rab3A, purified, nucleotide-loaded (natural protein, human, UniProt P20336 1-220, looked up)
chain: MASATDSRYGQKESSDQNFDYMFKILIIGNSSVGKTSFLFRYADDSFTPAFVSTVGIDFKVKTIYRNDKRIKLQIWDTAGQERYRTITTAYYRGAMGFILMYDITNEESFNAVQDWSTQIKTYSWDNAQVLLVGNKCDMEDERVVSSERGRQLADHLGFEFFEASAKDNINVKQTFERLVDVICEKMSESLDTADPAVTGAKQGPQLSDQQVPPHQDCAC
notes: Rab3A, human; Loaded with GppNHp (aSEC, ITC) or mant-GppNHp (stopped flow); also called Rab3A_(GppNHp); Rab3A_(mantGppNHp); source: E. coli BL21 Codon-Plus (DE3)-RIL, purified (Ni Sepharose, TEV cleavage, gel filtration)
